# Measurements published in publication PMC11456556.
# B1: a-syn-1 (5'-fluorescein) (ssDNA)
# DNA: ATAGTCCCATCATTCATTGTAAGGAAACGCTACGGGGTGGGTACGGCAAGATATTAGCAAGTGTCA
# B2: a-syn-1 (thiol, on gold electrode) (ssDNA)
# DNA: ATAGTCCCATCATTCATTGTAAGGAAACGCTACGGGGTGGGTACGGCAAGATATTAGCAAGTGTCA
# modifications: thiol (end not stated), immobilized on gold
# B3: a-syn-1 (5'-Cy5) (ssDNA)
# DNA: ATAGTCCCATCATTCATTGTAAGGAAACGCTACGGGGTGGGTACGGCAAGATATTAGCAAGTGTCA
# Tests used:
# [1] = target: T1, alpha-synuclein monomer (human, UniProt P37840 1-140); assay: DNase I footprinting
# [2] = target: T1, alpha-synuclein monomer; assay: EIS
# [3] = target: beta-synuclein (UniProt Q16143 1-134); assay: MST
# [4] = target: gamma-synuclein (UniProt O76070 1-127); assay: MST
# gamma-synuclein, sequence (O76070 whole entry): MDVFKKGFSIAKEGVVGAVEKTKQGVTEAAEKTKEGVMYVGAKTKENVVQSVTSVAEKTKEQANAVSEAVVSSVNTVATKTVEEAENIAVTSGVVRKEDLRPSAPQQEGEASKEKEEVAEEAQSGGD
# beta-synuclein, sequence (Q16143 whole entry): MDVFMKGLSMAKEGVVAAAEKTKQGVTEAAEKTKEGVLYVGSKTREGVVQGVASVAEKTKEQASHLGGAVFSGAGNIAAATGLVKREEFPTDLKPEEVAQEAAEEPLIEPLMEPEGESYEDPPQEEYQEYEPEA
binder,measurement,setting,value
B1,Kd,[1],28 ± 14 nM
B2,Kd,[2],70 ± 3 nM
B3,binding result,[3],no binding
same,binding result,[4],no binding
